Laboratory results reported in PMC7375240, “Covalent Inhibitors Allosterically Block the Activation of Rho Family Proteins and Suppress Cancer Cell Invasion” (Advanced Science, 2020).

B1: Tiam1 (residues 1033-1406) (domain or fragment)
chain: RQLSDADKLRKVICELLETERTYVKDLNCLMERYLKPLQKETFLTQDELDVLFGNLTEMVEFQVEFLKTLEDGVRLVPDLEKLEKVDQFKKVLFSLGGSFLYYADRFKLYSAFCASHTKVPKVLVKAKTDTAFKAFLDAQNPRQQHSSTLESYLIKPIQRVLKYPLLLRELFALTDAESEEHYHLDVAIKTMNKVASHINEMQKIHEEFGAVFDQLIAEQTGEKKEVADLSMGDLLLHTSVIWLNPPASLGKWKKEPELAAFVFKTAVVLVYKDGSKQKKKLVGSHRLSIYEEWDPFRFRHMIPTEALQVRALPSADAEANAVCEIVHVKSESEGRPERVFHLCCSSPESRKDFLKSVHSILRDKHRRQLLKTE
notes: Tiam1, murine, residues 1033-1406; The text says only 'their respective GEFs'; that this construct was the GEF used with Rac1 is inferred from the list of constructs; also called respective GEF of Rac1 (pairing inferred); source: E. coli BL21 (DE3), purified (GSTTrap, Superdex 75)
B2: Ral-B (natural protein, human, UniProt P11234 1-206, looked up)
chain: MAANKSKGQSSLALHKVIMVGSGGVGKSALTLQFMYDEFVEDYEPTKADSYRKKVVLDGEEVQIDILDTAGQEDYAAIRDNYFRSGEGFLLVFSITEHESFTATAEFREQILRVKAEEDKIPLLVVGNKSDLEERRQVPVEEARSKAEEWGVQYVETSAKTRANVDKVFFDLMREIRTKKMSENKDKNGKKSSKNKKSFKERCCLL
notes: RalB, human, full length, in pET28a with a TEV site; source: E. coli BL21 (DE3), purified (HisTrap FF, Superdex 75)

Experiments:
Rac1 = Rac1 (human, UniProt P63000 1-192); assay: pull-down; (His)6-tagged GTPase held on nickel beads, 2 µg GST-tagged partner added; 20 mM HEPES pH 7.4, 150 mM NaCl, 5 mM MgCl2, 40 mM imidazole, 4 °C, 1 h; GST-tagged protein detected by anti-GST western blot; samples without effect of DC-Rhoin; settings: both partners purified
[1] = molecular target: T1, RalGPS1 (residues 24-289) (human, UniProt Q5JS13 24-289); assay: as above; settings: both partners purified
T1 construct: RalGPS1, human, residues 24-289; also called respective GEF of Ral-B (pairing inferred); source: E. coli BL21 (DE3), purified (GSTTrap, Superdex 75)
T1 sequence (Q5JS13 24-289): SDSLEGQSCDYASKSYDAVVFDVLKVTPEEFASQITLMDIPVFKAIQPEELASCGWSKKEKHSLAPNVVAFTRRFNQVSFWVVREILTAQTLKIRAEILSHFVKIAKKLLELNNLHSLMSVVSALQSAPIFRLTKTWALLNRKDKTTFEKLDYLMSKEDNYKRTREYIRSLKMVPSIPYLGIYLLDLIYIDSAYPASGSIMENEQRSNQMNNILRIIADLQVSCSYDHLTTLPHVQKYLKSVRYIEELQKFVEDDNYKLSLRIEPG

| Binder | binding result (Rac1) | binding result [1] |
| --- | --- | --- |
| B1 | binds |  |
| B2 |  | binds |
